Measurements as given in patent US20210252159A1, “CONJUGATES OF CARTILAGE-HOMING PEPTIDES” (priority 2018, published 2021).
Positions of bridges follow the written chain, without caps; N, C: chain ends. Residues, ends and D or L forms follow the SMILES beside them. *: point of attachment. X1 = CC(CCC(C)C(=O)*)C(=O)OCC(=O)[C@@]1(O)[C@H](C)C[C@H]2[C@@H]3CCC4=CC(=O)C=C[C@]4(C)[C@@]3(F)[C@@H](O)C[C@@]21C

Key:
[1] = Hydrolysis assay of peptide-drug conjugates in PBS (free Dex by LC/MS); format: physicochemical; conditions: 37° C.
Method: In order to determine hydrolysis rates, conjugates can be diluted in PBS, rat plasma, or human plasma and incubated at 37 degrees. Samples can be taken at designated time-points (e.g., 1, 2, 3, 5, 10, 15, 20, 25, 30, 45, 60, or 90 minutes and/or hours after administration). Internal standards such as triamcinolone acetonide (TAA) can be added as an internal standard, and then active agent/TAA can be extracted using acetonitrile, for example. The samples can be dried down, reconstituted, and analyzed by LC/MS. Data can be normalized using Dex AUC/TAA AUC. Percent hydrolysis can be calculated using the average ratio for active agent AUC/TAA AUC at a time point of maximal drug release. A general method can include using a lyophilized, purified peptide-drug conjugates reconstituted in DMSO following production to generate stock solution at 20 mg/mL. Each conjugate stock can be brought to 0.25 mg/mL in each hydrolysis condition (1×DPBS, human plasma and rat plasma) in triplicate and rocked at 37° C. To quantitate free active agent, 100 μl of the hydrolyzed conjugate solution can be transferred into 1 mL acetonitrile at 4° C. at which time all plasma proteins and intact conjugates can precipitate. This can be performed repeatedly to generate a series of time points (0 hr, 0.5 hr, 1 hr, 2 hr, 4 hr, 6 hr, 8 hr, 24 hr, 32 hr). The acetonitrile solution can be spun at 17,000 g for 5 minutes, and the supernatant removed and added to a 96 well block. The pellet can then be resuspended in 500 μl acetonitrile and re-pelleted as before. The supernatant can be removed and added to the same well in the block. Samples can be prepared for analysis by drying under a nitrogen stream followed by reconstitution in 110 μl 45:55 ACN:Citrate 10 mM pH 5.5. To ensure optimal recovery the block can be shaken via plate shaker at 7,000 rpm for 5 minutes during the reconstitution step. Prior to LC/MS the samples can be transferred to a 96 well plate and centrifuged at 6,500 g for 15 minutes. Analysis can be performed on an Agilent 1260 Infinity series HPLC with inline 6120 single quad MS using acetonitrile, water (+0.1% TFA) gradient (shown below) on an InfinityLab Poroshell SB-C18 column. Quantification of free active agent (or drug) can be achieved through integration of active agent peaks of the TIC.
Lyophilized, purified peptide-drug conjugates were reconstituted in DMSO following production to generate stock solution at 20 mg/mL. Each conjugate stock was brought to 0.25 mg/mL in each hydrolysis condition (1×DPBS, human plasma and rat plasma) in triplicate and rocked at 37° C.
To quantitate free dexamethasone (Dex), 100 μl of the hydrolyzed conjugate solution was transferred into 1 mL acetonitrile at 4° C. at which time all plasma proteins and intact conjugates precipitated. This was performed repeatedly to generate a series of time points (0 hr, 0.5 hr, 1 hr, 2 hr, 4 hr, 6 hr, 8 hr, 24 hr, 32 hr). The corticosteroid triamcinolone acetonide (25 μl, 0.1 mg/mL in 45:55 ACN:Citrate 10 mM pH 5.5) was supplemented into the acetonitrile solution as an internal standard. The acetonitrile solution was spun at 17,000 g for 5 minutes, and the supernatant removed and added to a 96 well block. The pellet was resuspended in 500 μl acetonitrile and re-pelleted as before. The supernatant was removed and added to the same well in the block.
Samples were prepared for analysis by drying under a nitrogen stream followed by reconstitution in 110 μl 45:55 ACN:Citrate 10 mM pH 5.5. To ensure optimal recovery the block was shaken via plate shaker at 7,000 rpm for 5 minutes during the reconstitution step. Prior to LC/MS the samples were transferred to a 96 well plate and centrifuged at 6,500 g for 15 minutes. Analysis was performed on an Agilent 1260 Infinity series HPLC with inline 6120 single quad MS using a gradient of 0.1% TFA in acetonitrile (solvent B), and 0.1% TFA (aq) (solvent A) gradient (shown below) on an InfinityLab Poroshell SB-C18 column. […]

[2] = test system: CIA rats; format: in vivo; conditions: 0.05 mg/kg on study day 0 and day 1
Method: A study was conducted in CIA rats to address the following: 1) functionality and duration of effect for peptide(SEQ ID NO: 105)-carbamate-Dex at 0.2 mg/kg as compared to Dex alone at the same dose; 2) functionality and duration of effect for peptide(SEQ ID NO: 105)-DMA-Dex at 0.05 mg/kg as compared to Dex alone at the same dose; 3) systemic markers of Dex exposure in rats treated with each PDC and Dex at their respective doses (FIG. 16B-FIG. 16G).
CIA was induced as described above in EXAMPLE 21. Rats were enrolled in the study following onset of arthritis in at least one ankle and randomly assigned into one of five treatment groups (vehicle; peptide-carbamate 0.2 mg/kg; Dex 0.2 mg/kg; peptide-DMA conjugate 0.05 mg/kg; Dex 0.05 mg/kg) with 5 rats per group. Treatment was administered on study day 0 and study day 1 and rats were euthanized on study day 7. The primary read-out in this cohort was change in ankle diameter during and after treatment, as a measure of functionality and duration of effect. […] The primary read-out for this cohort was measures of systemic exposure to Dex which included thymus weight, spleen weight, total white blood cell counts, lymphocyte counts, and change in body weight.

CC[C@H](C)[C@@H]1NC(=O)[C@@H]2CSSC[C@H](NC(=O)[C@H](CCCNC(=N)N)NC(=O)[C@@H](NC(=O)[C@H](CC(N)=O)NC(=O)[C@@H](NC(=O)[C@@H]3CCCN3C(=O)[C@@H](NC(=O)CNC(=O)[C@H](CO)NC(=O)CNC(=O)C(C)CCC(C)C(=O)OCC(=O)[C@@]3(O)[C@H](C)C[C@H]4[C@@H]5CCC6=CC(=O)C=C[C@]6(C)[C@@]5(F)[C@@H](O)C[C@@]43C)C(C)C)[C@@H](C)CC)C(C)C)C(=O)N[C@@H](CCCNC(=N)N)C(=O)NCC(=O)N[C@@H](CO)C(=O)N[C@@H](CCCNC(=N)N)C(=O)N[C@@H](CC(=O)O)C(=O)N[C@H]3CSSC[C@H](NC(=O)[C@H](CCCNC(=N)N)NC(=O)[C@H](CO)NC(=O)[C@H](CC(N)=O)NC1=O)C(=O)N[C@@H](Cc1c[nH]cn1)C(=O)N[C@H](C(=O)N[C@H](C(=O)N1CCC[C@H]1C(=O)O)[C@@H](C)O)CSSC[C@H](NC(=O)[C@@H]1CCCN1C(=O)[C@H](CC(=O)O)NC(=O)[C@H](CC(C)C)NC3=O)C(=O)N[C@@H](CCCNC(=N)N)C(=O)N[C@@H](CCCNC(=N)N)C(=O)N[C@@H](C)C(=O)NCC(=O)N[C@@H](CCSC)C(=O)N[C@@H](CCCNC(=N)N)C(=O)N[C@@H](Cc1ccccc1)C(=O)NCC(=O)N[C@@H](CCCNC(=N)N)C(=O)N2 (stereo partly drawn) [Compound 27, peptide(SEQ ID NO: 105)-[dimethyladipic acid]-Dex] (X1-GSGVPINVRCRGSRDCLDPCRRAGMRFGRCINSRCHCTP-OH; disulfide 10-30, 16-35, 20-37 (inferred); C-terminus assumed)
Half-life (hours) as measured in the hydrolysis experiments ([1]; PBS, release of free Dex, time points to 32 hr): undetectable ≤32
Hydrolysis half-life ([1]; in PBS, free Dex): No Dex release ≤32 h
ankle diameter as compared to vehicle; magnitude and duration of effect [2]: significant reduction
